Reference: patent US20230235012A1 (ALPINE IMMUNE SCIENCES, published 2023)

Tests used:
[1] = biological target: T1, human CD28, full-length, expressed on transfected Expi293 cells (human, UniProt P10747 19-220); experiment: flow cytometry, 100 nM, Expi293 cells with human CD28
T1 construct: whole, on cells

[2] = biological target: T2, human CTLA-4, full-length, expressed on transfected Expi293 cells (human, UniProt P16410 36-223); experiment: flow cytometry, 100 nM, Expi293 cells with human CTLA-4
T2 construct: whole, on cells
T2 sequence (P16410 36-223): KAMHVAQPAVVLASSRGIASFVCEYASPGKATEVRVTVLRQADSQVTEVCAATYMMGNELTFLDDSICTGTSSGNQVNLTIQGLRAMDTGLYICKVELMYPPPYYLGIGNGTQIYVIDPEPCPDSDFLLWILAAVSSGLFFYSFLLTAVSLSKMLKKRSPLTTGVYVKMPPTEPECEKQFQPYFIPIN

| MFI [1] [MFI] | MFI [2] [MFI] | Binder |
| --- | --- | --- |
| 159000 | 321000 | variant ICOSL IgV-Fc fusion N52A/N57H/Q100S (Fc fusion) DTQEKEVRAMVGSDVELSCACPEGSRFDLNDVYVYWQTSESKTVVTYHIPQASSLEHVDSRYRNRALMSPAGMLRGDFSLRLFNVTPQDEQKFHCLVLSSSLGFQEVLSVEVTLHVAANFSVGSGGGGSEPKSSDKTHTCPPCPAPEAEGAPSVFLFPPKPKDTLMISRTPEVTCVVVDVSHEDPEVKFNWYVDGVEVHNAKTKPREEQYNSTYRVVSVLTVLHQDWLNGKEYKCKVSNKALPAPIEKTISKAKGQPREPQVYTLPPSREEMTKNQVSLTCLVKGFYPSDIAVEWESNGQPENNYKTTPPVLDSDGSFFLYSKLTVDKSRWQQGNVFSCSVMHEALHNHYTQKSLSLSPG |
| 21000 | – | variant ICOSL IgV-Fc fusion N52P/N57P (Fc fusion) DTQEKEVRAMVGSDVELSCACPEGSRFDLNDVYVYWQTSESKTVVTYHIPQPSSLEPVDSRYRNRALMSPAGMLRGDFSLRLFNVTPQDEQKFHCLVLSQSLGFQEVLSVEVTLHVAANFSVGSGGGGSEPKSSDKTHTCPPCPAPEAEGAPSVFLFPPKPKDTLMISRTPEVTCVVVDVSHEDPEVKFNWYVDGVEVHNAKTKPREEQYNSTYRVVSVLTVLHQDWLNGKEYKCKVSNKALPAPIEKTISKAKGQPREPQVYTLPPSREEMTKNQVSLTCLVKGFYPSDIAVEWESNGQPENNYKTTPPVLDSDGSFFLYSKLTVDKSRWQQGNVFSCSVMHEALHNHYTQKSLSLSPG |
| 161000 | 341000 | variant ICOSL IgV-Fc fusion N52T/N57Y/Q100A (Fc fusion) DTQEKEVRAMVGSDVELSCACPEGSRFDLNDVYVYWQTSESKTVVTYHIPQTSSLEYVDSRYRNRALMSPAGMLRGDFSLRLFNVTPQDEQKFHCLVLSASLGFQEVLSVEVTLHVAANFSVGSGGGGSEPKSSDKTHTCPPCPAPEAEGAPSVFLFPPKPKDTLMISRTPEVTCVVVDVSHEDPEVKFNWYVDGVEVHNAKTKPREEQYNSTYRVVSVLTVLHQDWLNGKEYKCKVSNKALPAPIEKTISKAKGQPREPQVYTLPPSREEMTKNQVSLTCLVKGFYPSDIAVEWESNGQPENNYKTTPPVLDSDGSFFLYSKLTVDKSRWQQGNVFSCSVMHEALHNHYTQKSLSLSPG |
| 137000 | 318000 | variant ICOSL IgV-Fc fusion N52R/N57W (Fc fusion) DTQEKEVRAMVGSDVELSCACPEGSRFDLNDVYVYWQTSESKTVVTYHIPQRSSLEWVDSRYRNRALMSPAGMLRGDFSLRLFNVTPQDEQKFHCLVLSQSLGFQEVLSVEVTLHVAANFSVGSGGGGSEPKSSDKTHTCPPCPAPEAEGAPSVFLFPPKPKDTLMISRTPEVTCVVVDVSHEDPEVKFNWYVDGVEVHNAKTKPREEQYNSTYRVVSVLTVLHQDWLNGKEYKCKVSNKALPAPIEKTISKAKGQPREPQVYTLPPSREEMTKNQVSLTCLVKGFYPSDIAVEWESNGQPENNYKTTPPVLDSDGSFFLYSKLTVDKSRWQQGNVFSCSVMHEALHNHYTQKSLSLSPG |
| 88700 | 78300 | variant ICOSL IgV-Fc fusion N52T/N57K/Q100P (Fc fusion) DTQEKEVRAMVGSDVELSCACPEGSRFDLNDVYVYWQTSESKTVVTYHIPQTSSLEKVDSRYRNRALMSPAGMLRGDFSLRLFNVTPQDEQKFHCLVLSPSLGFQEVLSVEVTLHVAANFSVGSGGGGSEPKSSDKTHTCPPCPAPEAEGAPSVFLFPPKPKDTLMISRTPEVTCVVVDVSHEDPEVKFNWYVDGVEVHNAKTKPREEQYNSTYRVVSVLTVLHQDWLNGKEYKCKVSNKALPAPIEKTISKAKGQPREPQVYTLPPSREEMTKNQVSLTCLVKGFYPSDIAVEWESNGQPENNYKTTPPVLDSDGSFFLYSKLTVDKSRWQQGNVFSCSVMHEALHNHYTQKSLSLSPG |
| 98200 | 233000 | variant ICOSL IgV-Fc fusion N52S/N57A/Q100A (Fc fusion) DTQEKEVRAMVGSDVELSCACPEGSRFDLNDVYVYWQTSESKTVVTYHIPQSSSLEAVDSRYRNRALMSPAGMLRGDFSLRLFNVTPQDEQKFHCLVLSASLGFQEVLSVEVTLHVAANFSVGSGGGGSEPKSSDKTHTCPPCPAPEAEGAPSVFLFPPKPKDTLMISRTPEVTCVVVDVSHEDPEVKFNWYVDGVEVHNAKTKPREEQYNSTYRVVSVLTVLHQDWLNGKEYKCKVSNKALPAPIEKTISKAKGQPREPQVYTLPPSREEMTKNQVSLTCLVKGFYPSDIAVEWESNGQPENNYKTTPPVLDSDGSFFLYSKLTVDKSRWQQGNVFSCSVMHEALHNHYTQKSLSLSPG |
| 5720 | 10200 | variant ICOSL IgV-Fc fusion N52G/N57P/Q100D (Fc fusion) DTQEKEVRAMVGSDVELSCACPEGSRFDLNDVYVYWQTSESKTVVTYHIPQGSSLEPVDSRYRNRALMSPAGMLRGDFSLRLFNVTPQDEQKFHCLVLSDSLGFQEVLSVEVTLHVAANFSVGSGGGGSEPKSSDKTHTCPPCPAPEAEGAPSVFLFPPKPKDTLMISRTPEVTCVVVDVSHEDPEVKFNWYVDGVEVHNAKTKPREEQYNSTYRVVSVLTVLHQDWLNGKEYKCKVSNKALPAPIEKTISKAKGQPREPQVYTLPPSREEMTKNQVSLTCLVKGFYPSDIAVEWESNGQPENNYKTTPPVLDSDGSFFLYSKLTVDKSRWQQGNVFSCSVMHEALHNHYTQKSLSLSPG |

The next lines start with the binder.

| Binder | MFI [1] [MFI] | MFI [2] [MFI] |
| --- | --- | --- |
| variant ICOSL IgV-Fc fusion N52R/N57F/Q100N (Fc fusion) DTQEKEVRAMVGSDVELSCACPEGSRFDLNDVYVYWQTSESKTVVTYHIPQRSSLEFVDSRYRNRALMSPAGMLRGDFSLRLFNVTPQDEQKFHCLVLSNSLGFQEVLSVEVTLHVAANFSVGSGGGGSEPKSSDKTHTCPPCPAPEAEGAPSVFLFPPKPKDTLMISRTPEVTCVVVDVSHEDPEVKFNWYVDGVEVHNAKTKPREEQYNSTYRVVSVLTVLHQDWLNGKEYKCKVSNKALPAPIEKTISKAKGQPREPQVYTLPPSREEMTKNQVSLTCLVKGFYPSDIAVEWESNGQPENNYKTTPPVLDSDGSFFLYSKLTVDKSRWQQGNVFSCSVMHEALHNHYTQKSLSLSPG | 161000 | 233000 |
| variant ICOSL IgV-Fc fusion N52D/N57A/Q100A (Fc fusion) DTQEKEVRAMVGSDVELSCACPEGSRFDLNDVYVYWQTSESKTVVTYHIPQDSSLEAVDSRYRNRALMSPAGMLRGDFSLRLFNVTPQDEQKFHCLVLSASLGFQEVLSVEVTLHVAANFSVGSGGGGSEPKSSDKTHTCPPCPAPEAEGAPSVFLFPPKPKDTLMISRTPEVTCVVVDVSHEDPEVKFNWYVDGVEVHNAKTKPREEQYNSTYRVVSVLTVLHQDWLNGKEYKCKVSNKALPAPIEKTISKAKGQPREPQVYTLPPSREEMTKNQVSLTCLVKGFYPSDIAVEWESNGQPENNYKTTPPVLDSDGSFFLYSKLTVDKSRWQQGNVFSCSVMHEALHNHYTQKSLSLSPG | 138000 | 340000 |
| variant ICOSL IgV-Fc fusion N52R/N57F/Q100R (Fc fusion) DTQEKEVRAMVGSDVELSCACPEGSRFDLNDVYVYWQTSESKTVVTYHIPQRSSLEFVDSRYRNRALMSPAGMLRGDFSLRLFNVTPQDEQKFHCLVLSRSLGFQEVLSVEVTLHVAANFSVGSGGGGSEPKSSDKTHTCPPCPAPEAEGAPSVFLFPPKPKDTLMISRTPEVTCVVVDVSHEDPEVKFNWYVDGVEVHNAKTKPREEQYNSTYRVVSVLTVLHQDWLNGKEYKCKVSNKALPAPIEKTISKAKGQPREPQVYTLPPSREEMTKNQVSLTCLVKGFYPSDIAVEWESNGQPENNYKTTPPVLDSDGSFFLYSKLTVDKSRWQQGNVFSCSVMHEALHNHYTQKSLSLSPG | 185000 | 464000 |
| variant ICOSL IgV-Fc fusion N52R/N57F/Q100P (Fc fusion) DTQEKEVRAMVGSDVELSCACPEGSRFDLNDVYVYWQTSESKTVVTYHIPQRSSLEFVDSRYRNRALMSPAGMLRGDFSLRLFNVTPQDEQKFHCLVLSPSLGFQEVLSVEVTLHVAANFSVGSGGGGSEPKSSDKTHTCPPCPAPEAEGAPSVFLFPPKPKDTLMISRTPEVTCVVVDVSHEDPEVKFNWYVDGVEVHNAKTKPREEQYNSTYRVVSVLTVLHQDWLNGKEYKCKVSNKALPAPIEKTISKAKGQPREPQVYTLPPSREEMTKNQVSLTCLVKGFYPSDIAVEWESNGQPENNYKTTPPVLDSDGSFFLYSKLTVDKSRWQQGNVFSCSVMHEALHNHYTQKSLSLSPG | 154000 | 504000 |
| variant ICOSL IgV-Fc fusion N52S/N57L/Q100G (Fc fusion) DTQEKEVRAMVGSDVELSCACPEGSRFDLNDVYVYWQTSESKTVVTYHIPQSSSLELVDSRYRNRALMSPAGMLRGDFSLRLFNVTPQDEQKFHCLVLSGSLGFQEVLSVEVTLHVAANFSVGSGGGGSEPKSSDKTHTCPPCPAPEAEGAPSVFLFPPKPKDTLMISRTPEVTCVVVDVSHEDPEVKFNWYVDGVEVHNAKTKPREEQYNSTYRVVSVLTVLHQDWLNGKEYKCKVSNKALPAPIEKTISKAKGQPREPQVYTLPPSREEMTKNQVSLTCLVKGFYPSDIAVEWESNGQPENNYKTTPPVLDSDGSFFLYSKLTVDKSRWQQGNVFSCSVMHEALHNHYTQKSLSLSPG | 71900 | 79400 |
| variant ICOSL IgV-Fc fusion N52R/N57Y/Q100P (Fc fusion) DTQEKEVRAMVGSDVELSCACPEGSRFDLNDVYVYWQTSESKTVVTYHIPQRSSLEYVDSRYRNRALMSPAGMLRGDFSLRLFNVTPQDEQKFHCLVLSPSLGFQEVLSVEVTLHVAANFSVGSGGGGSEPKSSDKTHTCPPCPAPEAEGAPSVFLFPPKPKDTLMISRTPEVTCVVVDVSHEDPEVKFNWYVDGVEVHNAKTKPREEQYNSTYRVVSVLTVLHQDWLNGKEYKCKVSNKALPAPIEKTISKAKGQPREPQVYTLPPSREEMTKNQVSLTCLVKGFYPSDIAVEWESNGQPENNYKTTPPVLDSDGSFFLYSKLTVDKSRWQQGNVFSCSVMHEALHNHYTQKSLSLSPG | 133000 | 502000 |
| variant ICOSL IgV-Fc fusion N52D/Q100S (Fc fusion) DTQEKEVRAMVGSDVELSCACPEGSRFDLNDVYVYWQTSESKTVVTYHIPQDSSLENVDSRYRNRALMSPAGMLRGDFSLRLFNVTPQDEQKFHCLVLSSSLGFQEVLSVEVTLHVAANFSVGSGGGGSEPKSSDKTHTCPPCPAPEAEGAPSVFLFPPKPKDTLMISRTPEVTCVVVDVSHEDPEVKFNWYVDGVEVHNAKTKPREEQYNSTYRVVSVLTVLHQDWLNGKEYKCKVSNKALPAPIEKTISKAKGQPREPQVYTLPPSREEMTKNQVSLTCLVKGFYPSDIAVEWESNGQPENNYKTTPPVLDSDGSFFLYSKLTVDKSRWQQGNVFSCSVMHEALHNHYTQKSLSLSPG | 95700 | 333000 |
